From patent US20250121104A1 (FUSION PHARMACEUTICALS, published 2025)

T1: Ron (CD136) (UniProt Q04912 25-957, limits assumed)
T1 sequence (looked up): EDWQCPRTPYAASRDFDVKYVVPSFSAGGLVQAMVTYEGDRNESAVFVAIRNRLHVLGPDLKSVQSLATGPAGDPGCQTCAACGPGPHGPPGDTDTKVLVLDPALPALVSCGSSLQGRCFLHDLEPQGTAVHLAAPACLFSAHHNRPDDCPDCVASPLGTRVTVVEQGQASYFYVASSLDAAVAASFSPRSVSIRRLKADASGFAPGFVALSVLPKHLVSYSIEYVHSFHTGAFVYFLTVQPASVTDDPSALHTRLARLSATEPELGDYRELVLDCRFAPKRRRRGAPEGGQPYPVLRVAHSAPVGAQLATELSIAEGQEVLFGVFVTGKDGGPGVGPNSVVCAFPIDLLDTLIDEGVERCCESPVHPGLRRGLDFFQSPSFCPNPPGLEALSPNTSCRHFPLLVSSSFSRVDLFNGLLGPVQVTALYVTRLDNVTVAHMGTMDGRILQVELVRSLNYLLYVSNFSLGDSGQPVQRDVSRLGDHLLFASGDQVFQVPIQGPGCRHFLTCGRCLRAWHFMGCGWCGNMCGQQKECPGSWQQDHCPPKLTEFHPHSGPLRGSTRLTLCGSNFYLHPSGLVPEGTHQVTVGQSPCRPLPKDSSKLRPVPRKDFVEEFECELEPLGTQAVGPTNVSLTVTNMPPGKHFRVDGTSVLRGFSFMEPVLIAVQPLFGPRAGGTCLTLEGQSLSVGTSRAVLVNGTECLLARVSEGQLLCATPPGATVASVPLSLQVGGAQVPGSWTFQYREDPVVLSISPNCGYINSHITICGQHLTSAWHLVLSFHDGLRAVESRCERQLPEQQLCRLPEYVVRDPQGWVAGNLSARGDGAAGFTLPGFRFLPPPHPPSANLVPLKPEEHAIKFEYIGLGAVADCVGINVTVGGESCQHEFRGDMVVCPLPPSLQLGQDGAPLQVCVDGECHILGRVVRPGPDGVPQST

T2: Semaphorin 3a (UniProt Q14563 21-771, limits assumed)
T2 sequence (looked up): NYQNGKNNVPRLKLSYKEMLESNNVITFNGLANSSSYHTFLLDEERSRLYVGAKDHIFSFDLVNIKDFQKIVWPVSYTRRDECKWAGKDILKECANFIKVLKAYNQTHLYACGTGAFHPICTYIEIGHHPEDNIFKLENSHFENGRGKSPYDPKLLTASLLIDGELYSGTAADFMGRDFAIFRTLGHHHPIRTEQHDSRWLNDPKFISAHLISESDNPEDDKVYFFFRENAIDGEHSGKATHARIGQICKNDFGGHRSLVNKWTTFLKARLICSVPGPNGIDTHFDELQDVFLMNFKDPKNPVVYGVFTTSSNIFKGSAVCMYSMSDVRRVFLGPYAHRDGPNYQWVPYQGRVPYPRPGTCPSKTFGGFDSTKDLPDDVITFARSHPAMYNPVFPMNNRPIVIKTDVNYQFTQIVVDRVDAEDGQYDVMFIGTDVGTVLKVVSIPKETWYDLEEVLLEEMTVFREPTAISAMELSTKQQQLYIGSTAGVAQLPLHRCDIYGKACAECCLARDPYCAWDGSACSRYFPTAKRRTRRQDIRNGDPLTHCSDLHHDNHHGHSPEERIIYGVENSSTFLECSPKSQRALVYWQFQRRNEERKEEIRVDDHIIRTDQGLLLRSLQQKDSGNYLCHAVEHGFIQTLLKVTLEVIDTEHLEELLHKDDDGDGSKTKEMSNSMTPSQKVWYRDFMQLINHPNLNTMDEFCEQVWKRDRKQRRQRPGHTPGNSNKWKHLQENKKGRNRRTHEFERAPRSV

B1: B09-57 IgG (antibody, V domains shown)
VH: QVQLVQSGAEVKKPGASVKVSCKASGYTFTDYYIHWVRQATGQGLEWMGWMNPNSGNTGYAQKFQGRVTMTRDTSISTAYMELSSLRSEDTAVYYCARGQGYTHSWGQGTMVTVSS
VL: DIQMTQSPSTLSASVGDRVTITCRASEGIYHWLAWYQQKPGKAPKLLIYKASSLASGVPSRFSGSGSGTEFTLTISSLQPDDFATYYCQQYSNYPPTFGGGTKLEIK
notes: also called B09-GL; anti-cMET antibody
B2: RAA22 IgG (antibody, V domains shown)
VH: QVQLVQSGAEVKKPGSSVKVSCKASGGTFSDNDFSWVRQAPGQGLEWMGAIVAVFRTETYAQKFQDRVKITADISTRTTYMELSSLRSEDTAVYYCARRLMSAISGPGAPLLMWGQGTLVTVSS
VL: QSALTQPRSVSGSPGQSVTISCTGTSSDVGGYNYVSWYQQHPGKAPKLMIYDVSKRPSGVPDRFSGSKSGNTASLTISGLQAEDEADYYCSSYTSSDTLEIFGGGTKLTVL
notes: also called anti-EGFR antibody clone RAA22

Experiments:
Ron (CD136) = target: T1, Ron (CD136); experiment: ELISA, antigen coated at 1 µg/mL, antibody titrated from 10 µg/mL
Procedure: (§1) Specificity for EGFR and cMET species paralogs and closely related family members was determined by ELISA. Briefly, antigen solutions were prepared in PBS at 1 μg/mL and 50 microliters was coated onto half area ELISA assay plates. Plates were washed and blocked with 1% BSA in PBS containing 0.005% Tween-20 (PBS-T) for one hour at room temperature. […] Wells were incubated with 50 microliters of the indicated primary antibodies diluted in PBS-T in a 1:3 dilution series, starting at 10 μg/mL and ending at 0.002 μg/mL, except for the HER4 binding mAb control, MAB1131, for which the series started at 1 μg/mL. The wells were washed 4 times in PBS-T, then 50 μl of goat anti-human Fab HRP-labeled secondary antibody, diluted 1:5000 in PBS-T, was added to each well and incubated for one hour at room temperature. […] 50 microliters of TMB stop solution was added to all wells and the absorbance was read at 450 nm on a SpectraMax M5 microplate reader. Data were analyzed in the SoftMax Pro 5 software and plotted using GraphPad Prism 7 graphing software.
(§2) To determine the species cross reactivity, ELISA assays were carried out as described above.

Semaphorin 3a = target: T2, Semaphorin 3a; experiment: as above
Procedure: as §1, §2

[1] = target: T3, human EGFR (recombinant, soluble monomeric) (human, UniProt P00533 25-645); experiment: SPR (BIAcore T200), antibody captured on anti-human IgG, soluble antigen as analyte
T3 construct: also called EGFR antigen

mouse cMET (recombinant) = mouse cMET (recombinant) (mouse, UniProt P16056 25-929, limits assumed); experiment: as above
mouse EGFR (recombinant) = target: T4, mouse EGFR (recombinant) (mouse, UniProt Q01279 25-647); experiment: as above
T4 construct: also called murine EGFR

[2] = target: T5, cynomolgus monkey EGFR (recombinant, soluble monomeric) (cynomolgus monkey, UniProt P55245 25-645 (rhesus entry)); experiment: as above
T5 construct: also called cyno EGFR

[3] = target: T6, cynomolgus monkey cMET (recombinant, soluble monomeric) (cynomolgus monkey, UniProt A0M8R7 25-932 (Papio anubis entry)); experiment: as above
T6 construct: also called cyno cMET

[4] = target: T7, human cMET (recombinant, soluble monomeric) (human, UniProt P08581 25-932); experiment: as above
T7 construct: also called cMET antigen; His-tagged cMET antigen
T7 sequence (P08581 25-932): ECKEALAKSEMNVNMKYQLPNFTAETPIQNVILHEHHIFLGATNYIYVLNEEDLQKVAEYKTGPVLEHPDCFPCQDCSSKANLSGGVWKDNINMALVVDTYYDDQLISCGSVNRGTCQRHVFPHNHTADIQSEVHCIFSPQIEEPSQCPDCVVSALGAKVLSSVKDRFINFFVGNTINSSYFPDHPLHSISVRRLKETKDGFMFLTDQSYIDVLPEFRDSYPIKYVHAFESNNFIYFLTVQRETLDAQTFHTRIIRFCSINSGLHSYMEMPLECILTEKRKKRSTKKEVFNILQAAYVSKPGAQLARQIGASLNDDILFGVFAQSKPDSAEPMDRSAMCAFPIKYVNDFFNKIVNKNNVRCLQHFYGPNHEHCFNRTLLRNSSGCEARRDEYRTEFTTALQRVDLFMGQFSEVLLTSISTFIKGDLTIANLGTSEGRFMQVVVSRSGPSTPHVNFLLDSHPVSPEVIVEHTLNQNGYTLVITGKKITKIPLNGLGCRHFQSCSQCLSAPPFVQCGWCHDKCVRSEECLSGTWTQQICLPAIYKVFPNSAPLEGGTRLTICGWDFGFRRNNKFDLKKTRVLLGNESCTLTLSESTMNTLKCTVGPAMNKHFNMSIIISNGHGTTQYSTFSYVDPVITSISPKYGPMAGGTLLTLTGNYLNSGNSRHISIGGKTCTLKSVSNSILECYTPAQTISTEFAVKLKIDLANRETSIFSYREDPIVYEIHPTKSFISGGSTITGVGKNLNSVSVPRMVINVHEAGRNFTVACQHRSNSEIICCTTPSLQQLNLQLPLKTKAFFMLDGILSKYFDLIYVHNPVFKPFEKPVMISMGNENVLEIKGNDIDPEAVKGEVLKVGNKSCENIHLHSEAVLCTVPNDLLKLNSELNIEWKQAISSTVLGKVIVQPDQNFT

Sequence of mouse cMET (recombinant) (P16056 25-929 limits assumed): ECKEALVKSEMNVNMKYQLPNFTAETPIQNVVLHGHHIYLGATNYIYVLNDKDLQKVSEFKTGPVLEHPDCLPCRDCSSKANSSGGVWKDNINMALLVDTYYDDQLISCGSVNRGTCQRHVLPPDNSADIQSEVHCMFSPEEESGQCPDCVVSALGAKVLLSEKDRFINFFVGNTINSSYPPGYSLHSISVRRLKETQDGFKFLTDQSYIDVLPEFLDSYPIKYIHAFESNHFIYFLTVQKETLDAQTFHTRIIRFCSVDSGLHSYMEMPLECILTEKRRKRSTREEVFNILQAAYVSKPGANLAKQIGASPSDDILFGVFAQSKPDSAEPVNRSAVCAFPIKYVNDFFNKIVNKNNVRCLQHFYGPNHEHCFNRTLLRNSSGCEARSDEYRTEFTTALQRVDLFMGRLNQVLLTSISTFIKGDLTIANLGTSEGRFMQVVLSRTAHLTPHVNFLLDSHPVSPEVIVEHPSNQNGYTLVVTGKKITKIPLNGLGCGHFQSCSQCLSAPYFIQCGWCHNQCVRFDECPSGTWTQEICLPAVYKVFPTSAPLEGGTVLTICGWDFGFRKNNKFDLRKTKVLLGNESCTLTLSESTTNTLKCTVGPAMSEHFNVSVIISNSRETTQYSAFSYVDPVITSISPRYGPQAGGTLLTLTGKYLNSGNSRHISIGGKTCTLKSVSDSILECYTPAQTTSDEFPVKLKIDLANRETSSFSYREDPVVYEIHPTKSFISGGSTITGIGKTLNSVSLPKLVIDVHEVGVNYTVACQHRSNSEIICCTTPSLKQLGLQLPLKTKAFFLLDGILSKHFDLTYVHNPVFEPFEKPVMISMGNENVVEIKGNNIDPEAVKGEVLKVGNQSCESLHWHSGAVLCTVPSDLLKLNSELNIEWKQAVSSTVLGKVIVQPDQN
T6 sequence (A0M8R7 25-932 S170N/I621T): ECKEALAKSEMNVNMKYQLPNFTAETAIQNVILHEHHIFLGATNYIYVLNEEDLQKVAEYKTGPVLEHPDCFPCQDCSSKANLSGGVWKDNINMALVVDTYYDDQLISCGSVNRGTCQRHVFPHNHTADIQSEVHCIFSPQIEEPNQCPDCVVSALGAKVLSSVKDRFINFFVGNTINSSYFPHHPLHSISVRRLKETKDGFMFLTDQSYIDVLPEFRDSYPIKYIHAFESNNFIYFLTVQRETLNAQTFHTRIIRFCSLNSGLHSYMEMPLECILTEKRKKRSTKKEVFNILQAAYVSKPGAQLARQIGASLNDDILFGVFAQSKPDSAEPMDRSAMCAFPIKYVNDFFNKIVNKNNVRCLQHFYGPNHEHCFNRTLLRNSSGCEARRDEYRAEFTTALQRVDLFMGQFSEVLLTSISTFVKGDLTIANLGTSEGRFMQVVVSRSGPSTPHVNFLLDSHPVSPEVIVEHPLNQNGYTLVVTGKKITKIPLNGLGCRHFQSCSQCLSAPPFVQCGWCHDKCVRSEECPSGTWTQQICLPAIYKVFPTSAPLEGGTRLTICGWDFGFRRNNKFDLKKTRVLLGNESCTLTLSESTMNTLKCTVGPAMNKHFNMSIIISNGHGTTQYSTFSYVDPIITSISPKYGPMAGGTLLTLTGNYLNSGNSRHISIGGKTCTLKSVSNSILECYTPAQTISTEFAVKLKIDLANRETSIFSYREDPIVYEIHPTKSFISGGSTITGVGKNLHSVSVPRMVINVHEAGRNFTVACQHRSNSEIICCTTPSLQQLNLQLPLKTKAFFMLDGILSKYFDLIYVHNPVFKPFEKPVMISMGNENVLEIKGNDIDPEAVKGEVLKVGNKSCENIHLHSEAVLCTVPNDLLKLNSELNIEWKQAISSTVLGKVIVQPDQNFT

Binder | binding result (Ron (CD136)) | binding result (Semaphorin 3a) | binding result [1] | binding result (mouse cMET (recombinant)) | binding result (mouse EGFR (recombinant)) | binding result [2] | binding result [3] | binding result [4]
B1 | no binding (tested: 10 µg/mL) | no binding (tested: 10 µg/mL) | no binding (tested: 200 nM) | no binding (tested: 200 nM) | no binding (tested: 200 nM) | no binding (tested: 200 nM) | – | –
B2 | no binding (tested: 10 µg/mL) | no binding (tested: 10 µg/mL) | – | no binding (tested: 200 nM) | – | – | no binding (tested: 200 nM) | no binding (tested: 200 nM)
